Source: patent US20210277098A1 (MITSUBISHI TANABE PHARMA, published 2021)
No end group written: not given here. *: point of attachment. Biotin = O=C1N[C@H]2[C@H](CS[C@H]2CCCCC(=O)*)N1

B1: recombinant mouse antibody r70E4 (antibody, mouse IgG2b, kappa, V domains shown)
VH: DVKLQESGPGLVKPSQSLSLTCSVTGYSITTSYYWNWIRQFPGNKLEWMGYISYDGTNNYNPSLKNRISITRDTSKNQFFLRLNSVTTEDTATYYCAGSFGYSQGTLVTVSA
VL: DVVMTQTPLSLPVSLGDQASISCRSSQSLVHSNGNTYLHWYLQRPGQSPKLLIYKVSNRFSGVPDRFSGSGSGTDFTLKISRVEAEDLGLYFCSQSTHVPYTFGGGTKLEIKR
notes: Recombinant form of B5.70E4 expressed in HEK293F cells
B2: recombinant mouse antibody r116A3 (antibody, mouse IgG2b, kappa, V domains shown)
VH: EVKLEESGGGLVQPGGSMKLSCAASGFTFSDAWMDWVRQSPEKGLEWVAEIRSKANNHATYYAESVKGRFTISRDDSKRSVYLQMNNLRAEDTGIYYCTRRDGAYWGQGTLVTVSA
VL: DIQMTQTTSSLSASLGDRVTISCRASQDISSYLNWYQQKPDGTVKLLIYYTSRLHSGVPSRFSGSGSGTDYSLTISNLEQEDIATYFCQQLNTLPWTFGGGTKLEIKR
notes: Recombinant form of B5.116A3 expressed in HEK293F cells
B3: mouse anti-human RGMa monoclonal antibody B5.116A3 (antibody, mouse IgG2b, kappa, V domains shown)
VH: B2 VH
VL: B2 VL

Legend:
[1] = biological target: Human RGMa protein (R&D systems, 2459-RM) (human) (UniProt Q96B86); test: SPR (Proteon XPR36), antigen amine-coupled on a GLC chip, antibody as analyte
[2] = biological target: T1, mouse RGMa protein (R&D systems, 2458-RG) (mouse) (UniProt Q6PCX7); test: as above
T1 sequence: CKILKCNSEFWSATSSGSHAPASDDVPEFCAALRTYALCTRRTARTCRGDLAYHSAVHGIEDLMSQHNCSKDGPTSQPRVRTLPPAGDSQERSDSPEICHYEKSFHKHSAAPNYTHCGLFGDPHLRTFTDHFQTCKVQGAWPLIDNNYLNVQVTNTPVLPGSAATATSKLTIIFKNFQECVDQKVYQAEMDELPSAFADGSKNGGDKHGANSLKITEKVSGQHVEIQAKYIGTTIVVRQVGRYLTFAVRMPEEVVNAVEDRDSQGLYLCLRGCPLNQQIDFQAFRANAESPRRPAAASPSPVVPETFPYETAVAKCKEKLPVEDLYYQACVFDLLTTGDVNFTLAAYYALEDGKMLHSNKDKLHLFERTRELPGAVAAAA

[3] = biological target: T2, Human RGMa protein (R&D systems, 2459-RM) (human, UniProt Q96B86 48-422, limits assumed); test: as above
T2 construct: Bought protein; also called Recombinant RGMa protein
T2 sequence: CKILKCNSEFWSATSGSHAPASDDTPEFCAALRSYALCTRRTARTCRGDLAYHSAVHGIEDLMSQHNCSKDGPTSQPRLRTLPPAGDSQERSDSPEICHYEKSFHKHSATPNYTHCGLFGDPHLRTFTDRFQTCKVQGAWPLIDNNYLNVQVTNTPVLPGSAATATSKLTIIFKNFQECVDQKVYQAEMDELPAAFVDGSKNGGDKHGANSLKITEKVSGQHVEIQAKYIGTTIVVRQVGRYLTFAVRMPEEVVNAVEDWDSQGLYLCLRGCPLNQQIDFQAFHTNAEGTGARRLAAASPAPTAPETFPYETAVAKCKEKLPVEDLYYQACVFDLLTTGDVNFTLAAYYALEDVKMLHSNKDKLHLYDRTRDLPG
Description: (§1) The affinity of the test antibodies (r116A3 and r70E4) and r5F9 (Comparative Example) for RGMa protein were measured by the surface plasmon resonance (SPR) method using Proteon XPR36 (Bio-Rad).
(§2) Human RGMa protein (R&D Systems, 2459-RM), the C-terminal domain of human RGMa protein (prepared in Example 1) or mouse RGMa protein (R&D Systems, 2458-RG) diluted to 10 μg/mL with 10 mM acetate buffer (pH4.5) was immobilized on a GLC sensor chip by amine coupling method.

[4] = biological target: T3, C-terminal domain of human RGMa protein (prepared in Example 1), Pro 169 to Gly 422 with C-terminal histidine … (human, UniProt Q96B86 169-422); test: as above
T3 construct: Secreted from CHO cells and purified on a nickel column; also called Human RGMa C-terminal domain; recombinant human RGMa protein; not shown: histidine tag at the C terminus
T3 sequence: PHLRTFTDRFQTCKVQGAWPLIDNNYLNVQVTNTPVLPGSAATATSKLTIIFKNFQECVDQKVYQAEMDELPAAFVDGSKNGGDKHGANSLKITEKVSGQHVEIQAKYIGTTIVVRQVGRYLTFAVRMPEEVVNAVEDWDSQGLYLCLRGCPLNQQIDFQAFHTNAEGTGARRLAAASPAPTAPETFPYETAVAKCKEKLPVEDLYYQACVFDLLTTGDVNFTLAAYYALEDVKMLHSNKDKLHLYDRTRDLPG
Description: as §1, §2

[5] = biological target: T1, mouse RGMa protein (R&D systems, 2458-RG) (mouse); test: SPR (Proteon XPR36), ratio of Kd values against r5F9
[6] = biological target: T4, biotinylated SGSG-spacer peptide of human RGMa Ile 325 to Glu 335 (human); test: peptide scanning ELISA, biotinylated peptides on avidin-coated plates
T4 construct: One of 83 peptides of 11 residues, immobilised on avidin-coated plates
T4 peptide: Biotin-SGSGIDFQAFHTNAE
Description: (§3) Epitopes to which the antibodies bind were determined by the peptide scanning method. A total of 83 kinds of peptides were synthesized by fusing the N-terminal side of the amino acid sequences consisting of 11 consecutive residues shifted by 3 residues contained in Arg 172 to Ala 424 of the human RGMa protein (SEQ ID NO: 1 in Sequence Listing) with a spacer sequence (SGSG) with biotinylated N terminus (SEQ ID NO: 46 in Sequence Listing). After immobilizing the peptides on avidin-coated plates, the test antibodies (B5.116A3 and B5.70E4) were allowed to react. Subsequently, a peroxidase-labeled rabbit anti-mouse Ig antibody (Dako, P026002) was allowed to react. After a substrate solution was added and color developed for a certain time, the absorbance was measured with a plate reader.

[7] = biological target: T5, biotinylated SGSG-spacer peptide of human RGMa Asn 322 to Thr 332 (human); test: as above
T5 construct: One of 83 peptides of 11 residues, immobilised on avidin-coated plates
T5 peptide: Biotin-SGSGNQQIDFQAFHT
Description: as §3

[8] = biological target: T6, biotinylated SGSG-spacer peptide of human RGMa Lys 367 to Ala 377 (human); test: as above
T6 construct: One of 83 peptides of 11 residues, immobilised on avidin-coated plates
T6 peptide: Biotin-SGSGKLPVEDLYYQA
Description: as §3

[9] = biological target: T7, biotinylated SGSG-spacer peptide of human RGMa Glu 298 to Asp 308 (human); test: as above
T7 construct: One of 83 peptides of 11 residues, immobilised on avidin-coated plates
T7 peptide: Biotin-SGSGEEVVNAVEDWD
Description: as §3

[10] = biological target: T8, biotinylated SGSG-spacer peptide of human RGMa Val 301 to Gly 311 (human); test: as above
T8 construct: One of 83 peptides of 11 residues, immobilised on avidin-coated plates
T8 peptide: Biotin-SGSGVNAVEDWDSQG
Description: as §3

| Molecule | Kd [1] [nM] | Kd [2] [nM] | Kd [3] [nM] | Kd [4] [nM] | times stronger binding than r5F9 [5] [times] | binding result [6] | binding result [7] | binding result [8] | binding result [9] | binding result [10] |
| --- | --- | --- | --- | --- | --- | --- | --- | --- | --- | --- |
| recombinant rat mouse chimeric antibody r5F9 (Comparative Example) | 1.59 | 8.98 | – | – | – | – | – | – | – | – |
| B1 | – | 174 | 2.43 | 1.12 | – | – | – | – | – | – |
| B2 | – | 0.201 | 0.0487 | 0.0568 | 44 | – | – | – | – | – |
| B3 | – | – | – | – | – | binds | binds | binds | binds | binds |
